# Laboratory results as given in patent US20240309103A1 (Regeneron, published 2024).
# T1: human NPR1 extracellular domain expressed with a C-terminal mouse IgG2a (hNPR1-mFc) (human)
# T1 construct: also called hNPR1-Fc; human NPR1 dimer
# T1 chain: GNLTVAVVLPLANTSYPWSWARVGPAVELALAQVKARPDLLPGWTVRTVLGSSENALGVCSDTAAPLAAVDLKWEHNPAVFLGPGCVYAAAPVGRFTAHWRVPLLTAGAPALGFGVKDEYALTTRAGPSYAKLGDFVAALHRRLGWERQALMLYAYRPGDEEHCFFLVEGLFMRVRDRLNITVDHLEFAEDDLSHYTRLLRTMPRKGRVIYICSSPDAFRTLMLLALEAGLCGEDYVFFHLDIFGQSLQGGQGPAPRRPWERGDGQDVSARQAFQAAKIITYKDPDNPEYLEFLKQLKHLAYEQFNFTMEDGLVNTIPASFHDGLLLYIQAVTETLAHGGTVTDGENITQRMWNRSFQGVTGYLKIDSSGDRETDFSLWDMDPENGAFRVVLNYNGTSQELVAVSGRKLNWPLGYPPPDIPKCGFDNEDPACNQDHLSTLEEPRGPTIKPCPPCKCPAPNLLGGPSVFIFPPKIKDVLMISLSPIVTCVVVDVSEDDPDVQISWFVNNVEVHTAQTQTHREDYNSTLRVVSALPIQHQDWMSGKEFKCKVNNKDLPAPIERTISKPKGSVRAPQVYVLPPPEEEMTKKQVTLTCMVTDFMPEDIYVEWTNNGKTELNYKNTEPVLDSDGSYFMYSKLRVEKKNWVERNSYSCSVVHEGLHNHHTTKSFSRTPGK
# T2: monkey NPR1 extracellular domain expressed with a C-terminal myc-myc-hexahistidine (mfNPR1-MMH) (monkey, UniProt P16066 33-473 (human entry))
# T2 construct: also called monomeric monkey NPR1
# T2 chain: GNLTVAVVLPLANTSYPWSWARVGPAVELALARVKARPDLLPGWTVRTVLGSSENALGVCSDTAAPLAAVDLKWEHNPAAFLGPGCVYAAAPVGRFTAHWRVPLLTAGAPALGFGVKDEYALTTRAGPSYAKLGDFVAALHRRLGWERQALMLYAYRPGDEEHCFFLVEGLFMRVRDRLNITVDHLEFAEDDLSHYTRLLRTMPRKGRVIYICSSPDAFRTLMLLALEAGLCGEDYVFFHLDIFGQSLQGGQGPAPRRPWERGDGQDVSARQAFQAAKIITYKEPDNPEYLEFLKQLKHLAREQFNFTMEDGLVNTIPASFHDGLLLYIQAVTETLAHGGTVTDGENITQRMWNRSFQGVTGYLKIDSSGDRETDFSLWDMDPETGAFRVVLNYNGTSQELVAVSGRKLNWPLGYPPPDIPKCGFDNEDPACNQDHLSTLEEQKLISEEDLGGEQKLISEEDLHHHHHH
# T3: mouse NPR1 extracellular domain expressed with a C-terminal mouse IgG2a (mNPR1-mFc) (mouse)
# T3 chain: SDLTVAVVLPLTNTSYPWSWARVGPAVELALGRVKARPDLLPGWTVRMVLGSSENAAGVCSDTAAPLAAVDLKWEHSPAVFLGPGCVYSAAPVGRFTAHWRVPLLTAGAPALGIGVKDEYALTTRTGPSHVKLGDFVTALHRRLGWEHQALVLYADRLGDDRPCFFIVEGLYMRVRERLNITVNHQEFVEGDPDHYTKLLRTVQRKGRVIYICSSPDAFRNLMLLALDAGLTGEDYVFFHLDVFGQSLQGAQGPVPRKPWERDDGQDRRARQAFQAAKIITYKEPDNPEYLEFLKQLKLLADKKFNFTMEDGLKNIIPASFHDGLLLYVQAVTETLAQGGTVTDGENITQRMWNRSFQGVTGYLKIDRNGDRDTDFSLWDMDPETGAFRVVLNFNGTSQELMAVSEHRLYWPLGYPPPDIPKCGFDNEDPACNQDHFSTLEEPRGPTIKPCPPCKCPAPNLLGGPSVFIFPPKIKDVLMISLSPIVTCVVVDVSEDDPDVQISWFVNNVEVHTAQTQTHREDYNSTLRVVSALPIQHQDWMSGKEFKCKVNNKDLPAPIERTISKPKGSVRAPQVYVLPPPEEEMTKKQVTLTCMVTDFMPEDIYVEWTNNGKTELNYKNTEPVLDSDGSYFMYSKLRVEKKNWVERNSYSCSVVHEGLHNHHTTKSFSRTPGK
# B1: mAb25497 (antibody, V domains shown)
# VH: QVQLVQSGAEVKEPGASVKVSCKASGYTFTDYYIHWVRQAPGQGLEWMGWINLNSGGKNHAQKFQGRVTVTSDTSINTAYIELGRLRGDDTAVYYCSRGGGSHYYYYYHGMDVWGQGTTVTVSS
# VL: DIQMTQSPSSLSASVGDRITITCRASHSIDSYLNWYQQKPGKAPKLLIYPASTLQSGVPSRFSGSGSGTDFTLTISSLQPEDSAIYYCQQSYSTPLTFGGGTKVEIK
# B2: mAb22809 (antibody, V domains shown)
# VH: QLQLRESGPGLVKPSETLSLTCTVSGGSINDNSFFWDWIRQTPGRGLEWIGNIFFDGNTYYTPSLKSRVIISVDMSQNQFSLRLTSVTAADTALYYCARHKRSMTAWGFFDYWGQGTLVTVSS
# VL: DIQMTQSPSSLSASVGDRVTITCRASKRINTYLNWYQQKPGKAPKVLIYSASNLQSGVPSRFSGSGSGTDFTLTINSLQPEDFATYFCQQSFSAPPITFGQGTRLEIK
# B3: mAb25498 (antibody, V domains shown)
# VH: QVQLVESGGGVVQPGRSLRLSCVASGFTFSSYGMVWVRQTPGKGLEWVAVIWHDGTNNYYADSVKGRFTISRDNSKNTLYLQMNSLRAEDTAVYYCAREPWLVRGYYYYAMDVWGQGTTVTVSS
# VL: not shown
# B4: mAb25508 (antibody, V domains shown)
# VH: EVQLVESGGGVVRPGGSLRLSCAASGFNVDDYGMSWVRQIPGKGLEWISGINWNGGRIYYADSMKGRITISRDNAKNSLYLQMNSLRAEDTALYHCVRDQWLVRGLDYWGQGTLVTVSS
# VL: DIQMTQSPSSLSASVGDRVTITCRASQGIYNYLAWFQQKPGKAPKSLIYAASSLQSGVPSKFSGSGSGTDFTLTISSLQPEDFATYYCQQYNTYPYTFGQGTKLEIK
# B5: mAb22805 (antibody, V domains shown)
# VH: QVQLVESGGGVVQPGRSLRLSCAASGFTFSTYGMHWVRQAPGKGLEWVALIWNDGSNKYYADSVKGRFTISRDNSKNTLDLQMNSLRAEDTAVYYCARLNTRITGTTNLDYWGQGTLVTVSS
# VL: DIQMTQSPSSLSASVGDRVTVSCRASQSIANYLNWYQQKPGKAPNLLIYGAYTLQSGVPSRFRGSGSGTDFTLTISSLQPEDFATYYCQQTYSTPPITFGQGTRLEIK
# Molecular target: T4, mouse NPR1 extracellular domain expressed with a C-terminal myc-myc-hexahistidine (mNPR1-MMH) (mouse, UniProt P18293 29-469)
# Assay: SPR, mAb captured, 25 C
# Description: (§1) Equilibrium dissociation constant (KD) for different NPR1 reagents binding to purified anti-NPR1 monoclonal antibodies (mAbs) were determined using a real-time surface plasmon resonance based Biacore 4000 biosensor. All binding studies were performed in 10 mM HEPES, 150 mM NaCl, 3 mM EDTA, and 0.05% v/v Surfactant Tween-20, pH 7.4 (HBS-ET) running buffer at 25° C. and 37° C. The Biacore CM5 sensor chip surface was first derivatized by amine coupling with either mouse anti-human Fc specific mAb (GE Healthcare, #BR100839) or goat anti-human Fcy specific polyclonal antibody (Jackson ImmunoResearch Laboratories, #BR-1008-39) to capture anti-NPR1 mAbs.
Binder,100 nM Ag Bound (RU),binding result
B1,0 RU,no binding (tested: 100 nM)
B2,0 RU,no binding (tested: 100 nM)
B3,0 RU,no binding (tested: 100 nM)
B4,0 RU,no binding (tested: 100 nM)
B5,0 RU,no binding (tested: 100 nM)

# Molecular target: T1, human NPR1 extracellular domain …
# Assay: SPR, mAb captured, 25 C
# Description: as §1
Binder,100 nM Ag Bound (RU),Kd,koff,kon,t½,binding result
B1,49 RU,0.238 nM,4.83e-05 s⁻¹,203000 M⁻¹ s⁻¹,239 min,–
B2,-2 RU,–,–,–,–,–
B3,94 RU,3.65 nM,0.000255 s⁻¹,69800 M⁻¹ s⁻¹,45.3 min,–
B4,211 RU,0.0868 nM,6.85e-05 s⁻¹,789000 M⁻¹ s⁻¹,169 min,–
B5,2 RU,–,–,–,–,no binding (tested: 100 nM)

# Molecular target: T5, human NPR1 extracellular domain expressed with a C-terminal myc-myc-hexahistidine (hNPR1-MMH) (human, UniProt P16066 33-473)
# T5 construct: also called hNPR.mmh; monomeric human NPR1
# Assay: SPR, mAb captured, 25 C
# Description: as §1
Binder,100 nM Ag Bound (RU),Kd,koff,kon,t½,binding result
B1,22 RU,52.7 nM,0.00167 s⁻¹,31700 M⁻¹ s⁻¹,6.9 min,–
B2,0 RU,–,–,–,–,–
B3,68 RU,81 nM,0.00182 s⁻¹,22500 M⁻¹ s⁻¹,6.3 min,–
B4,192 RU,0.309 nM,0.000134 s⁻¹,432000 M⁻¹ s⁻¹,86.5 min,–
B5,0 RU,–,–,–,–,no binding (tested: 100 nM)

# Molecular target: T2, monkey NPR1 extracellular domain …
# Assay: SPR, mAb captured, 25 C
# Description: as §1
Binder,100 nM Ag Bound (RU),Kd,koff,kon,t½,binding result
B1,49 RU,59.8 nM,0.00226 s⁻¹,37800 M⁻¹ s⁻¹,5.1 min,–
B2,0 RU,–,–,–,–,no binding (tested: 100 nM)
B3,114 RU,27.2 nM,0.00158 s⁻¹,57900 M⁻¹ s⁻¹,7.3 min,–
B4,213 RU,0.187 nM,0.000132 s⁻¹,706000 M⁻¹ s⁻¹,87.5 min,–
B5,0 RU,–,–,–,–,no binding (tested: 100 nM)

# Molecular target: T3, mouse NPR1 extracellular domain …
# Assay: SPR, Tables 21 to 26
# Description: as §1
row,Binder,binding result
1,B1,no binding
2,B2,no binding
3,B3,no binding
4,B4,no binding
5,B5,no binding

# Molecular target: T4, mouse NPR1 extracellular domain …
# Assay: SPR, mAb captured, 37 C
# Description: as §1
row,Binder,100 nM Ag Bound (RU)
1,B1,0 RU
2,B2,0 RU
3,B3,0 RU
4,B4,0 RU
5,B5,1 RU

# Molecular target: T1, human NPR1 extracellular domain …
# Assay: SPR, mAb captured, 37 C
# Description: as §1
Binder,100 nM Ag Bound (RU),Kd,koff,kon,t½
B1,43 RU,7.31 nM,0.00031 s⁻¹,42300 M⁻¹ s⁻¹,37.3 min
B2,-1 RU,–,–,–,–
B3,129 RU,6.41 nM,0.000568 s⁻¹,88600 M⁻¹ s⁻¹,20.3 min
B4,242 RU,0.121 nM,0.000101 s⁻¹,838000 M⁻¹ s⁻¹,114 min
B5,8 RU,–,–,–,–

# Molecular target: T5, human NPR1 extracellular domain …
# Assay: SPR, mAb captured, 37 C
# Description: as §1
Binder,100 nM Ag Bound (RU),Kd,koff,kon,t½
B1,31 RU,139 nM,0.00258 s⁻¹,18600 M⁻¹ s⁻¹,4.5 min
B2,-1 RU,–,–,–,–
B3,97 RU,184 nM,0.00415 s⁻¹,22500 M⁻¹ s⁻¹,2.8 min
B4,252 RU,0.49 nM,0.000222 s⁻¹,453000 M⁻¹ s⁻¹,52.1 min
B5,1 RU,–,–,–,–

# Molecular target: T2, monkey NPR1 extracellular domain …
# Assay: SPR, mAb captured, 37 C
# Description: as §1
Binder,100 nM Ag Bound (RU),Kd,koff,kon,t½
B1,69 RU,139 nM,0.00384 s⁻¹,27700 M⁻¹ s⁻¹,3 min
B2,1 RU,–,–,–,–
B3,151 RU,52.1 nM,0.00369 s⁻¹,70700 M⁻¹ s⁻¹,3.1 min
B4,275 RU,0.349 nM,0.000273 s⁻¹,782000 M⁻¹ s⁻¹,42.3 min
B5,3 RU,–,–,–,–
